As usually defined, the Kd is a measure of binding affinity in units of concentration. One may read the stoichiometry N as a count of units in the complex or per binding partner. In general, Km refers to the concentration of substrate that gives half-maximal velocity. What is called kcat is the number of substrate molecules converted per active site and unit of time at saturation. A word on the kcat/Km: it is the turnover number divided by the Michaelis constant.

For data set [1], the target named is T1, AlDHPyr1147 (Pyrobaculum ferrireducens, UniProt G7VCG0).
T1 construct: gene P186_1147; homotetramer
T1 sequence (G7VCG0 1-491): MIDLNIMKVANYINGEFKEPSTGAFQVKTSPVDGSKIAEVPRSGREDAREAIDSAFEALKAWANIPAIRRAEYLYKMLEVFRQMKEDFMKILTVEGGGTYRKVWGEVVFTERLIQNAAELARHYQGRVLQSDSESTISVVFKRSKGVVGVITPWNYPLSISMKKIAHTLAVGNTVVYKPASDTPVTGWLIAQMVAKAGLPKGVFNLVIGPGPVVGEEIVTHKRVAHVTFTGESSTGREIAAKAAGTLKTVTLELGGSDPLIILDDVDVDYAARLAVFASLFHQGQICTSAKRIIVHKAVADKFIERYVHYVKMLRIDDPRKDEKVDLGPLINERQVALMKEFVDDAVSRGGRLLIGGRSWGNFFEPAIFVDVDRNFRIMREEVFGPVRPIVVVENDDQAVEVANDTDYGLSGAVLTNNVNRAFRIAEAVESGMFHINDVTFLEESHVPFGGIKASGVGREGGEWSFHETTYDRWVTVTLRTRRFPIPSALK
The data set can be described thus: spectrophotometric NADPH formation at […] nm. It is filed as biochemical. As to conditions: 0.084 μM enzyme, 0.3 mM NADP+, 9 mM isobutyraldehyde, pH 8.8, 60 °C.

Data set [2] addresses T1, AlDHPyr1147. The data set can be described thus: spectrofluorimetric titration of apo form. It is filed as binding. The text has this: spectrofluorimetric titration of apo form on AlDHPyr1147 | spectrofluorimetric titration of the apo form of AlDHPyr1147 with NADP+
Data set [3] concerns the target NADP-dependent aldehyde dehydrogenase AlDHPyr1147 from archaeon Pyrobaculum sp.1860 (Pyrobaculum sp.1860). The data set can be described thus: SEC; gel filtration of the apo form (coenzyme removed by heating at 85°C for 10-15 min), at room temperature. (In general: SEC sorts molecules by how far they enter the pores of the column.)
Data set [4] has the same target. The data set can be described thus: SEC; gel filtration of AlDHPyr1147 as isolated (with bound coenzyme); analytical column 10/300 GL, 50 mM sodium pyrophosphate pH 8.8, 100 mM NaCl, 22°C.
Data set [5] shares this target. The data set can be described thus: crystal structure; apo form, three binary complexes with coenzyme (Holo-1, Holo-2, Holo-3) and ternary complex with NADP+ and isobutyraldehyde; space group P2(1)2(1)2, eight subunits (two tetramers) per asymmetric unit.
Substrate in data set [6]: CC(C)C=O
The data set can be described thus: purified protein. As to conditions: 0.3 mM NADP+, 50 mM sodium pyrophosphate pH 8.8, 100 mM NaCl, 60 °C.

Substrate in data set [7]: O=C[C@H](O)CO
The data set can be described thus: purified protein. As to conditions: 0.3 mM NADP+, 50 mM sodium pyrophosphate pH 8.8, 100 mM NaCl, 60 °C.

Substrate in data set [8]: CCC=O
The data set can be described thus: purified protein. Type of data set: biochemical, Pyrobaculum ferrireducens. As to conditions: 0.3 mM NADP+, 50 mM sodium pyrophosphate pH 8.8, 100 mM NaCl, 60 °C.

Substrate in data set [9]: NC(=O)c1ccc[n+]([C@@H]2O[C@H](COP(=O)(O)OP(=O)(O)OC[C@H]3O[C@@H](n4cnc5c(N)ncnc54)[C@H](OP(=O)(O)O)[C@@H]3O)[C@@H](O)[C@H]2O)c1
The data set can be described thus: purified protein. It is filed as biochemical, Pyrobaculum ferrireducens. To be noted: 60 °C, isobutyraldehyde oxidation, standard assay, 50 mM sodium pyrophosphate pH 8.8, 100 mM NaCl, varied: cofactor.

For the molecule `NC(=O)C1=CN([C@@H]2O[C@H](COP(=O)(O)OP(=O)(O)OC[C@H]3O[C@@H](n4cnc5c(N)ncnc54)[C@H](OP(=O)(O)O)[C@@H]3O)[C@@H](O)[C@H]2O)C=CC1` [NADPH], the “% decrease in activity at 0.08 mM” value at AlDHPyr1147 [1] was determined as 20%.
Take `NC(=O)c1ccc[n+]([C@@H]2O[C@H](COP(=O)(O)OP(=O)(O)OC[C@H]3O[C@@H](n4cnc5c(N)ncnc54)[C@H](OP(=O)(O)O)[C@@H]3O)[C@@H](O)[C@H]2O)c1` [NADP+]: the equilibrium dissociation constant (Kd) on AlDHPyr1147 [2] was found to be 600 ± 80 nM.
Regarding “NADP-dependent aldehyde dehydrogenase AlDHPyr1147 from archaeon Pyrobaculum sp.1860 (enzyme)”, the stoichiometry N in data set [3], in data set [4] and in data set [5] was 4 throughout.

B1: AlDHPyr1147 (Pyrobaculum ferrireducens) (protein)
chain: MIDLNIMKVANYINGEFKEPSTGAFQVKTSPVDGSKIAEVPRSGREDAREAIDSAFEALKAWANIPAIRRAEYLYKMLEVFRQMKEDFMKILTVEGGGTYRKVWGEVVFTERLIQNAAELARHYQGRVLQSDSESTISVVFKRSKGVVGVITPWNYPLSISMKKIAHTLAVGNTVVYKPASDTPVTGWLIAQMVAKAGLPKGVFNLVIGPGPVVGEEIVTHKRVAHVTFTGESSTGREIAAKAAGTLKTVTLELGGSDPLIILDDVDVDYAARLAVFASLFHQGQICTSAKRIIVHKAVADKFIERYVHYVKMLRIDDPRKDEKVDLGPLINERQVALMKEFVDDAVSRGGRLLIGGRSWGNFFEPAIFVDVDRNFRIMREEVFGPVRPIVVVENDDQAVEVANDTDYGLSGAVLTNNVNRAFRIAEAVESGMFHINDVTFLEESHVPFGGIKASGVGREGGEWSFHETTYDRWVTVTLRTRRFPIPSALK
notes: homotetramer
Take B1: the Km in the data set “purified protein [6]” stood at 0.020 ± 0.003 M; in the data set “purified protein [7]” it was 0.015 ± 0.006 M; in the data set “purified protein [8]”, 0.021 ± 0.0025 M; in “purified protein [9]”, 20.9 ± 0.1 µM. Besides, the turnover number (kcat) in “purified protein [6]” was found to be 4.1 s⁻¹; in “purified protein [7]”, 1.2 s⁻¹; in “purified protein [8]” it was 2.9 ± 0.16 s⁻¹. The kcat/Km in “purified protein [6]” stood at 200 M⁻¹ s⁻¹; in “purified protein [7]” it was 80 M⁻¹ s⁻¹; in the data set “purified protein [8]” it was 140 ± 30 M⁻¹ s⁻¹.
